According to the supplement of paper PMC10567573:
± gives the standard deviation.

Assay: protein stability index of a GFP-peptide fusion (GPS, HEK-293T) (PSI 1-6); higher = more stable
[1] = treatment: DMSO, c terminus: a fixed tail appended
[2] = treatment: MLN4924 1 uM, 8 h, c terminus: a fixed tail appended
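Also: 24-mer peptide tiles fused after GFP, lentivirally expressed, FACS-sorted into six equal bins by GFP/DsRed ratio, decoded by Illumina sequencing, PSI is the read-weighted mean bin number.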

Row | Sequence | protein stability index [1] | protein stability index [2] | protein stability index (treatment: DMSO, c terminus: native) | protein stability index (treatment: MLN4924 1 uM, 8 h, c terminus: native)
1 | ESQLPEEWENNRESLIVFMEQVHR [CPXM2] | 3.79 ± 0.33 | 3.82 ± 0.49 | – | –
2 | QKRLKSKLLDHDNVKYLKKILDEL [GDAP1] | 2.1 ± 0.24 | 2.19 ± 0.22 | – | –
3 | MQLKSPMPSSTTQKDSYQPPGNVY [SPAG8] | 4.13 ± 0.17 | 4.14 ± 0.16 | – | –
4 | GDLSGGQVLKKIAQKALDLPSSGE [HMOX1] | 4.77 ± 0.37 | 4.8 ± 0.13 | – | –
5 | EKIWRPNRVFSLQDLCCRAIVSCT [RAB40C] | 2.76 ± 0.19 | 2.88 ± 0.14 | – | –
6 | IELQGVPNDEVHPLLGVKGDGKSK [RBBP5] | 5.14 ± 0.19 | 4.96 ± 0.21 | – | –
7 | YECTVCKKRFTRRSHLIGHQRTHS [ZNF449] | 4.86 ± 0.39 | 5.05 ± 0.24 | – | –
8 | PPTYPTKYFGCELGAQTQFDVKND [EIF5] | 4.35 ± 0.17 | 4.494 ± 0.038 | – | –
9 | WAIPNRQINDGMGGDGDDMEIFME [BEX3] | 4.31 ± 0.3 | 4.22 ± 0.26 | – | –
10 | INQEELRALEEVEMKLQKNFLTQR [C10orf62] | 3.66 ± 0.39 | 3.83 ± 0.34 | – | –
11 | QILDSLSYMRNENVISELNIEDYF [FBXO39] | 2.32 ± 0.29 | 2.2 ± 0.12 | – | –
12 | IGTPPSVLKRQRKRRVALSPVTEN [MYBL2] | 4.22 ± 0.56 | 4.49 ± 0.14 | – | –
13 | PQRPRSAPRTSSCAERLQSEEQVS [FCHO1] | 4.85 ± 0.39 | 4.9 ± 0.24 | – | –
14 | SPSFPEAPDSGRSAPYSAAFLELP [TBX6] | 3.96 ± 0.3 | 3.93 ± 0.44 | – | –
15 | DMELHRMSRMQSKEYPVVPRSTVR [TBX5] | 4.35 ± 0.07 | 4.33 ± 0.15 | – | –
16 | GGRLENQKPRGLEGGVLRGSKLEK [ZSWIM9] | 4.91 ± 0.68 | 4.9 ± 0.65 | – | –
17 | LDGKKKGVEPSPSPIKPGDIKRGI [UFD1] | 4.92 ± 0.24 | 4.92 ± 0.25 | – | –
18 | SLGAVGEGFHNYHHSFPYDYSASE [SCD] | 3.81 ± 0.24 | 3.88 ± 0.28 | – | –
19 | KFADNKWSVTGKAEPAMPGRLYVH [TBX5] | 2.53 ± 0.094 | 2.61 ± 0.27 | – | –
20 | APPSTRTSHSLPESSVPSTVGCSS [PLEKHN1] | 4.94 ± 0.45 | 5.23 ± 0.18 | – | –
21 | SVVGTVLAATQAEKAVANFDRTEW [ZC2HC1C] | 3.26 ± 0.21 | 3.26 ± 0.3 | – | –
22 | TIVSCTPVHLVDKLPLPSTLRSHL [RAB40A] | 2.32 ± 0.091 | 2.28 ± 0.15 | – | –
23 | TNVESQLAEIRSDLERQNQEYQVL [KRT33B] | 4.52 ± 0.26 | 4.56 ± 0.25 | – | –
24 | LLKTPWRAASAMQFFTKGYQETIS [GCH1] | 2.19 ± 0.28 | 2.44 ± 0.18 | – | –
25 | AACLLQLDGLIQQCGETMKETVNV [GMCL1] | 3.14 ± 0.24 | 3.07 ± 0.25 | – | –

Row | Sequence | protein stability index [1] | protein stability index [2] | protein stability index (treatment: DMSO, c terminus: native) | protein stability index (treatment: MLN4924 1 uM, 8 h, c terminus: native)
26 | CSSSNLAGNDDSFGSLPSPKELSS [DLC1] | 4.37 ± 0.15 | 4.37 ± 0.27 | – | –
27 | GCRLPSISSTTCGRQLEKVPEKRD [SPATS1] | 3.98 ± 0.36 | 3.84 ± 0.22 | – | –
28 | TFVSTCQAIDATVAAELLNHLLES [HES6] | 2.48 ± 0.35 | 2.48 ± 0.32 | – | –
29 | MYASSAPPSEPVPSLEDISCNTWP [TBX5] | 3.95 ± 0.17 | 3.97 ± 0.22 | – | –
30 | LPLALVTWVPMFLSTLLAPYQALR [SOAT2] | 2.93 ± 0.6 | 2.95 ± 0.35 | – | –
31 | PGRDRVGREDEDGWETRGDRKARK [HES6] | 5.49 ± 0.26 | 5.48 ± 0.17 | – | –
32 | WIGLFLVATGSQQSLAQPLPGNTT | 2.93 ± 0.55 | 2.96 ± 0.35 | – | –
33 | KFLAFSGPHPKSKIENGYPLHAPE [CDC14A] | 3.23 ± 0.15 | 3.16 ± 0.29 | – | –
34 | SAPVETPRGKPPLNTRSQAPLLRW [HMOX1] | 3.64 ± 0.26 | 3.72 ± 0.24 | – | –
35 | VELIPEKKGLFLKHVEYEVSSQRF [SNX8] | 2.31 ± 0.27 | 2.46 ± 0.19 | – | –
36 | LRLLQHTPSARRNYRIAGARLMRS [C6orf223] | 2.99 ± 0.22 | 3.08 ± 0.32 | – | –
37 | QKNGGGAYLVPYLVLLIIIGIPLF [SLC6A17] | 2.37 ± 0.061 | 2.83 ± 1.5 | – | –
38 | SREKTACAINKVGVSFSTVENELM [FAM98B] | 3.35 ± 0.28 | 3.63 ± 0.5 | – | –
39 | FHAYYYCFITLTTIGFGDYVALQT [KCNK9] | 3.27 ± 0.29 | 3.34 ± 0.36 | – | –
40 | AEHQFSFMEKRNQWLVSQLSAASP [TRAF3IP2] | 3.02 ± 0.39 | 3.23 ± 0.37 | – | –
41 | LGWGPTALRDVPFSALYWFNYELV [SLC25A39] | 2.9 ± 0.54 | 2.61 ± 0.41 | – | –
42 | WRERAVEKRERALEEVERAILEMK [ZBED2] | 4.2 ± 0.14 | 4.29 ± 0.44 | – | –
43 | RKDTKEIYTHFTCATDTKNVQFVF [GNAI1] | 2.49 ± 1 | 2.64 ± 0.43 | – | –
44 | FDDFVTNLIEKSASLDNGGCALTT [SOAT1] | 3.66 ± 0.27 | 3.62 ± 0.16 | – | –
45 | MKDSMSAAEVGTGQYATTKGISQT [EPB41L3] | 4.75 ± 0.094 | 4.78 ± 0.44 | – | –
46 | VAGSLAGAIAQSSIYPMEVLKTRM [SLC25A25] | 2.56 ± 0.11 | 2.54 ± 0.32 | – | –
47 | GLSHSHDLSMDGLFGTIAYLPPER [RIPK4] | 3.28 ± 0.32 | 3.42 ± 0.25 | – | –
48 | TASLLLCPGGLDHKLNLRGKAWG [TIAF1] | – | – | 2.98 ± 0.22 | 2.59 ± 0.67
49 | AFEPEALGNLVEGLDFHRFYFENL [CAMK2A] | 2.51 ± 0.18 | 2.61 ± 0.3 | – | –
